Columns and labels:
[1] = target: BDBV GP (Bundibugyo virus (BDBV)); experiment: ELISA, purified mAb
[2] = target: BDBV GP (Bundibugyo virus (BDBV)); experiment: GP ELISA, purified mAb

Chain of FVM09 (antibody) (VH): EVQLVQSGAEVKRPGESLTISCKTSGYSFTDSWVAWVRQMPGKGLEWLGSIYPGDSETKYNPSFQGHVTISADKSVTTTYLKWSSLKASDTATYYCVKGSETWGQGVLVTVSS
Chain of FVM09 (antibody) (V domain): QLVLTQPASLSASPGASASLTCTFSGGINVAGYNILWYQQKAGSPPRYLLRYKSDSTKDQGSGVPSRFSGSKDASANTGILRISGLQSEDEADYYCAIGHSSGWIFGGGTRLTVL

Work on FVM09 (antibody) yielded an EC50 [1] of less than 0.015 µg/mL and an EC50 [2] of 0.02 µg/mL.
